This note sets out measurements from paper PMC2645002.

The assay deals with miniCD4 CD4M48, biotinylated at Lys11. In words: pull-down.

“HIV-1 envelope glycoprotein gp120SF162 (monomer) (natural protein)” displayed a % of recovery of 55.8%.
